Results on three molecules are retold here after US20240141038A1 (SHANGHAI QILU PHARMACEUTICAL RESEARCH AND DEVELOPMENT CENTRE, published 2024).

Where two headings read alike, the source gives them in different places.

The target in experiment [1] is cynomolgus monkey NKp46 (full length, on cells) (cynomolgus monkey) (UniProt Q95JB9). The experiment can be described thus: flow cytometry on cynomolgus monkey NKp46-CHOK1 cells.
The target is the same in experiment [2]. Described as above. The source holds these as a separate data set.
Experiment [3] has as its target T1, human NKp46 (full length, on cells) (human, UniProt O76036 22-304). Kind of experiment: flow cytometry on human NKp46-CHOK1 cells. The procedure: (§1) The stable human NKp46-CHOK1 and cynomolgus monkey NKp46-CHOK1 cell lines obtained in Example 2 were cultured, the cells were digested with 0.25% pancreatic enzyme EDTA for about 5 minutes, and the digestion was terminated with the complete medium. After centrifugation at 1,500 rpm for 5 minutes, the supernatant was discarded, the precipitated cells were resuspended with PBS containing 1% BSA and counted. The cell density was adjusted to 1E6/mL and seeded in a corning-3799 96-well culture plate at 100 μL/well. Aftering centrifuging at 1,500 rpm for 5 minutes, the supernatant was discarded and the precipitate was set aside at 4° C. The antibody solutions were prepared with PBS containing 1% BSA, wherein the antibody solution has an initial concentration was 100 nM, then diluted in 10-fold to obtain 7 gradients: 10⁻⁴ nM, 10⁻³ nM, 10⁻² nM, 10⁻¹ nM, […], and 10² nM. The prepared antibody solutions were used to resuspend the cells, 100 μL/well. The resuspended cell culture plates were incubated in a 4° C. freezer for 1 h. After centrifugation at 1500 rpm for 5 minutes, the supernatant was discarded. The precipitate was washed with 160 μL of PBS containing 1% BSA, the supernatant was discarded, and the cells were stored for later use.
(§2) The Secondary antibody (goat anti human IgG Fc PE) solution was prepared with PBS containing 1% BSA, and diluted 1:200. The cells were resuspended with the prepared secondary antibody solution, 100 μL/well, incubated in a 4° C. freezer for 0.5 h. After centrifugation at 1,500 rpm for 5 minutes, the supernatant was discarded, the precipitated cells were washed with 160 μL of PBS containing 1% BSA, the supernatant was discarded, the cells were resuspended with 100 μL of PBS containing 1% BSA, and filtered in 300-mesh gauze. The mean fluorescence intensity of antibody binding to cells was then analyzed on a flow cytometer. The FCS file was exported from the flow cytometer, the mean fluorescence intensity (hereinafter referred to as MFI) of PE channel was analyzed with Flowjo software, and the mean fluorescence intensity obtained was introduced into the Graphpad to analyze the half binding concentration (hereinafter referred to as EC₅₀) and the top mean fluorescence intensity (Top MFI) of the antibody and the cell.

In experiment [4] the target is T2, cynomolgus monkey NKp46 (full length, on cells) (cynomolgus monkey, UniProt Q95JB9 22-306).
T2 construct: also called cynomolgus monkey NKp46-CHOK1; cynomolgus NKp46-CHOK1
The experiment can be described thus: flow cytometry on cynomolgus monkey NKp46-CHOK1 cells. The procedure:
as §1, §2

The target of experiment [5] is T3, Human NKp46 antigen for immunization, screening, and testing (Kactus, NKP-HM146) (human, UniProt O76036 22-255).
T3 construct: Bought protein; also called human NKp46 antigen protein; human NKp46 protein
Kind of experiment: SPR (Biacore 8K), antibody captured on anti-human Fc, NKp46 as analyte, 1:1 fit. The procedure: Human NKp46 was diluted in two-fold to a serial concentration (400 nM-3.125 nM), then combined for 90 s at a flow rate of 50 μL/min, and dissociated for 500 s.
(§3) At the end of each round of experiments, 3 M MgCl₂ solution was used to rinse at a flow rate of 30 μL/min for 30 s, and the captured antibody was removed along with the antigen to complete the regeneration of the chip. The raw data were analyzed using Biacore Insight Evaluation Software (version 3.0.12.15655) software and (1:1) Langmuir model was fit to the data. Compared with the anti-NKp46 humanized antibody and the corresponding chimeric antibody, the affinity to the human NKp46 antigen protein is mostly maintained.

In experiment [6] the target is T1, human NKp46 (full length, on cells). The experiment can be described thus: cell-based or functional assay.
Experiment [7] concerns the target T4, Cynomolgus monkey NKp46 for immunization, screening, and testing (Kactus, NKP-CM146) (cynomolgus monkey, UniProt Q95JB9 22-254).
T4 construct: Bought protein; also called monkey NKp46 antigen protein; cynomolgus monkey NKp46 antigen
Kind of experiment: SPR (Biacore 8K), antibody captured on anti-human Fc, NKp46 as analyte, 1:1 fit. The procedure:
Cynomolgus monkey NKp46 was diluted in two-fold to a serial concentration (400 nM-3.125 nM), combined for 90 s at a flow rate of 50 μL/min and dissociated for 500 s.
as §3

T3 sequence (O76036 other isoform, or with tags, fused parts or gaps limits assumed): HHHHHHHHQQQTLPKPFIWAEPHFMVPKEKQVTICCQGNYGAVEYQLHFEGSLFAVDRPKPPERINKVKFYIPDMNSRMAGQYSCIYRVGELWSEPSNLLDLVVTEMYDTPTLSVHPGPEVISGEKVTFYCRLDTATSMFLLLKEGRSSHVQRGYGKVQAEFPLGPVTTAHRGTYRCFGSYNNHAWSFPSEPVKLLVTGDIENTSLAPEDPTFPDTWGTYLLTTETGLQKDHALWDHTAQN
T1 sequence (O76036 22-304 Q82K): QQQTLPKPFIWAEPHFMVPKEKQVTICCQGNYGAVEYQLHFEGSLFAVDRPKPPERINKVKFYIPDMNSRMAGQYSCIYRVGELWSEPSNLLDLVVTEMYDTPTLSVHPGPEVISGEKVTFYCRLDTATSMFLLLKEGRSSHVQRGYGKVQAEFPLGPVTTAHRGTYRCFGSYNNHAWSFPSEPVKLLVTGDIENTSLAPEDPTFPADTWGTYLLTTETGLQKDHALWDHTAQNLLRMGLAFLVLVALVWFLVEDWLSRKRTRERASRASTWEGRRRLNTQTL
T2 sequence (Q95JB9 22-306): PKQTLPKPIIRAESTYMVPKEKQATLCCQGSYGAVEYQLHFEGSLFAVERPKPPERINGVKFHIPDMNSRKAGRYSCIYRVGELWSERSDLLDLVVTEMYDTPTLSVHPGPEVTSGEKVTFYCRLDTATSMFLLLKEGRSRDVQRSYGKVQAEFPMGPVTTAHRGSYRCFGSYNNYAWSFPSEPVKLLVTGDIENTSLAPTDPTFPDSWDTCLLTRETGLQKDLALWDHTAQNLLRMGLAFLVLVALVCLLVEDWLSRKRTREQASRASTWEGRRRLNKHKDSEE
T4 sequence (Q95JB9 other isoform, or with tags, fused parts or gaps limits assumed): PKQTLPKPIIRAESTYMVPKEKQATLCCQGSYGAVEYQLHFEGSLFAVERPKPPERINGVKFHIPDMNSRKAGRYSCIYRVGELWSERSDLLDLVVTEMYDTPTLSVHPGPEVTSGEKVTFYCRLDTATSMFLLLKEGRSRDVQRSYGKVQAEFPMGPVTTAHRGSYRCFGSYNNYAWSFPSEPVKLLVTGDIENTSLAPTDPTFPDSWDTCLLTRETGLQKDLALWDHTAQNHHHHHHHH
cynomolgus monkey NKp46 (full length, on cells) (cynomolgus monkey), sequence (Q95JB9 22-306): as the sequence (Q95JB9 22-306) above

Consider “Anti-HEL human IgG1 LALA (Biointron, Cat. number B109802) (antibody)”, for which the Top MFI in experiment [1] worked out at 118; in experiment [2], 86; in experiment [3], 223; in experiment [3] (record 2), 98.

B1: H2-PA31 humanized antibody (antibody, human IgG1, V domains shown)
VH: EVQLVESGGGLVQPGGSLRLSCAVSGRTFSRLPMGWFRQAPGKGLEFVAAISWSSSTTYYADSVKGRFTISRDNSKNTAYLQMNSLRAEDTAVYYCAAVGGSLDYSATVVYTAARAYADWGQGTLVTVSS
notes: not shown: constant region of human IgG1
As to B1, in experiment [4], the EC50 was 2.11 nM and the “Top MFI” value was determined as 3270. In experiment [5], this molecule gave a Kd of 10.9 nM, an off-rate (koff) of 0.000959 s⁻¹ and a kon of 87800 M⁻¹ s⁻¹. In experiment [6], the “EC50 of NK cell activation (CD107a-positive NK cells, plate-coated antibody)” value worked out at 0.63 nM and the “Top mean fluorescence intensity (Top MFI), NK cell activation (CD107a)” value amounted to 35.3. Moreover, in experiment [3], the concentration for a half-maximal effect (EC50) came to 0.203 nM and the “Top MFI” value worked out at 5940. Besides, in experiment [7], the equilibrium dissociation constant (Kd) worked out at 7.69 nM, the koff was determined as 0.000596 s⁻¹ and the kon worked out at 77500 M⁻¹ s⁻¹.

B2: H2-PA45 humanized antibody (antibody, V domains shown)
VH: EVQLVESGGGLVQPGGSLRLSCAASGRTFSRLPMAWFRQAPGKGLEFVAAISWSGGSTYYADSMKGRFTISRDNSKNTAYLQMNSLRAEDTAVYYCAAVGDSAPYSATIVYTDARAYAYWGQGTLVTVSS
notes: as for B1
Regarding B2, in experiment [4], it took 2.76 nM to reach a half-maximal effect (EC50) and the “Top MFI” value amounted to 3590. In experiment [5], this molecule yielded an equilibrium dissociation constant (Kd) of 24.1 nM, an off-rate constant (koff) of 0.00154 s⁻¹ and a kon of 63800 M⁻¹ s⁻¹. For the same molecule, in experiment [6], the “EC50 of NK cell activation (CD107a-positive NK cells, plate-coated antibody)” value was 0.75 nM and the “Top mean fluorescence intensity (Top MFI), NK cell activation (CD107a)” value was 39.1. Also, in experiment [3], it took 0.274 nM to reach a half-maximal effect (EC50) and the “Top MFI” value was determined as 5610. In addition, in experiment [7], the Kd stood at 7.34 nM, the off-rate (koff) is 0.000563 s⁻¹ and the kon was found to be 76700 M⁻¹ s⁻¹.
